Assay results taken from patent publication US20130209454A1.

Legend:
Experiment in all cases: cell-based or functional assay
[1] = molecular target: HIV-1 Env of strain 1006_11_C3_1601 (HIV-1)
[2] = molecular target: HIV-1 Env of strain 3103.v3.c10 (HIV-1)
[3] = molecular target: HIV-1 Env of strain 3817.v2.c59 (HIV-1)
[4] = molecular target: HIV-1 Env of strain 6811.v7.c18 (HIV-1)
[5] = molecular target: HIV-1 Env of strain CAP45.2.00.G3 (HIV-1)
[6] = molecular target: HIV-1 Env of strain CNE17 (HIV-1)
[7] = molecular target: HIV-1 Env of strain CNE58 (HIV-1)
[8] = molecular target: HIV-1 Env of strain Ce1176_A3 (HIV-1)
[9] = molecular target: HIV-1 Env of strain Ce2010_F5 (HIV-1)
[10] = molecular target: HIV-1 Env of strain Ce2060_G9 (HIV-1)
[11] = molecular target: HIV-1 Env of strain Ce703010054_2A2 (HIV-1)
[12] = molecular target: HIV-1 Env of strain P0402_c2_11 (HIV-1)
[13] = molecular target: HIV-1 Env of strain Q259.d2.17 (HIV-1)
[14] = molecular target: HIV-1 Env of strain R2184.c04 (HIV-1)
[15] = molecular target: HIV-1 Env of strain REJO4541.67 (HIV-1)
[16] = molecular target: HIV-1 Env of strain RHPA4259.7 (HIV-1)
[17] = molecular target: HIV-1 Env of strain SC422661.8 (HIV-1)
[18] = molecular target: HIV-1 Env of strain T255-34 (HIV-1)
[19] = molecular target: HIV-1 Env of strain THRO4156.18 (HIV-1)
[20] = molecular target: HIV-1 Env of strain X1254_c3 (HIV-1)
[21] = molecular target: HIV-1 Env of strain ZM109F.PB4 (HIV-1)
[22] = molecular target: HIV-1 Env of strain ZM214M.PL15 (HIV-1)
[23] = molecular target: HIV-1 Env of strain ZM233M.PB6 (HIV-1)
[24] = molecular target: HIV-1 Env of strain 6540.v4.cl (HIV-1)
[25] = molecular target: HIV-1 Env of strain 703357.C02 (HIV-1)
[26] = molecular target: HIV-1 strain 3301.v1.c24 envelope (gp120) (HIV-1)
[27] = molecular target: HIV-1 strain 3415.v1.c1 envelope (gp120) (HIV-1)
[28] = molecular target: HIV-1 strain 6545.v4.c1 envelope (gp120) (HIV-1)
[29] = molecular target: HIV-1 strain 6811.v7.c18 envelope (gp120) (HIV-1)
[30] = molecular target: HIV-1 strain 928-28 envelope (gp120) (HIV-1)
[31] = molecular target: HIV-1 strain AC10.0.29 envelope (gp120) (HIV-1)
[32] = molecular target: HIV-1 strain C1080.c03 envelope (gp120) (HIV-1)
[33] = molecular target: HIV-1 strain C2101.c01 envelope (gp120) (HIV-1)
[34] = molecular target: HIV-1 strain CAP45.2.00.G3 envelope (gp120) (HIV-1)
[35] = molecular target: HIV-1 strain CNE20 envelope (gp120) (HIV-1)
[36] = molecular target: HIV-1 strain Ce1176_A3 envelope (gp120) (HIV-1)
[37] = molecular target: HIV-1 strain Du172.17 envelope (gp120) (HIV-1)
[38] = molecular target: HIV-1 strain PVO.4 envelope (gp120) (HIV-1)
[39] = molecular target: HIV-1 strain Q259.d2.17 envelope (gp120) (HIV-1)
[40] = molecular target: HIV-1 strain Q461.e2 envelope (gp120) (HIV-1)
[41] = molecular target: HIV-1 strain R2184.04 envelope (gp120) (HIV-1)
[42] = molecular target: HIV-1 strain RHPA4259.7 envelope (gp120) (HIV-1)
[43] = molecular target: HIV-1 strain T251-18 envelope (gp120) (HIV-1)
[44] = molecular target: HIV-1 strain T278-50 envelope (gp120) (HIV-1)
[45] = molecular target: HIV-1 strain THRO4156.18 envelope (gp120) (HIV-1)
[46] = molecular target: HIV-1 strain X1193_c1 envelope (gp120) (HIV-1)
[47] = molecular target: HIV-1 strain X2131_C1_B5 envelope (gp120) (HIV-1)
[48] = molecular target: HIV-1 strain ZM233M.PB6 envelope (gp120) (HIV-1)
[49] = molecular target: HIV-1 strain ZM247v1(Rev-) envelope (gp120) (HIV-1)
[50] = molecular target: HIV-1 strain ZM249M.PL1 envelope (gp120) (HIV-1)

B1: NIH45-46^G54W(HC), S28Y(LC) (antibody, V domains shown)
VH: QVRLSQSGGQMKKPGESMRLSCRASGYEFLNCPINWIRLAPGRRPEWMGWLKPRWGAVNYARKFQGRVTMTRDVYSDTAFLELRSLTSDDTAVYFCTRGKYCTARDYYNWDFEHWGRGAPVTVSS
VL: EIVLTQSPATLSLSPGETAIISCRTSQYGSLAWYQQRPGQAPRLVIYSGSTRAAGIPDRFSGSRWGADYNLSISNLESGDFGVYYCQQYEFFGQGTKVQVDI
For B1, the IC50, pseudovirus neutralization [1] was 0.009 µg/mL, the IC50, pseudovirus neutralization [2] was 0.181 µg/mL and the IC50, pseudovirus neutralization [3] was 5.14 µg/mL. The IC50, pseudovirus neutralization [4] was 0.026 µg/mL, the IC50, pseudovirus neutralization [5] was 0.02 µg/mL and the IC50, pseudovirus neutralization [6] was 0.064 µg/mL. For the same binder, the IC50, pseudovirus neutralization [7] was 0.016 µg/mL, the IC50, pseudovirus neutralization [8] was 0.172 µg/mL and the IC50, pseudovirus neutralization [9] was 0.03 µg/mL. The IC50, pseudovirus neutralization [10] was 0.014 µg/mL, the IC50, pseudovirus neutralization [11] was 0.016 µg/mL and the IC50, pseudovirus neutralization [12] was 0.01 µg/mL. The IC50, pseudovirus neutralization [13] was 0.001 µg/mL, the IC50, pseudovirus neutralization [14] was 0.008 µg/mL and the IC50, pseudovirus neutralization [15] was 0.001 µg/mL. The IC50, pseudovirus neutralization [16] was 0.001 µg/mL, the IC50, pseudovirus neutralization [17] was 0.024 µg/mL and the IC50, pseudovirus neutralization [18] was 0.013 µg/mL. For the same binder, the IC50, pseudovirus neutralization [19] was 0.685 µg/mL, the IC50, pseudovirus neutralization [20] was 0.006 µg/mL and the IC50, pseudovirus neutralization [21] was 0.013 µg/mL. It also gave an IC50, pseudovirus neutralization [22] of 0.036 µg/mL and an IC50, pseudovirus neutralization [23] of 0.011 µg/mL.

B2: NIH45-46^G54F IgG (antibody, name in Kabat numbering, V domains shown)
VH: QVRLSQSGGQMKKPGESMRLSCRASGYEFLNCPINWIRLAPGRRPEWMGWLKPRFGAVNYARKFQGRVTMTRDVYSDTAFLELRSLTSDDTAVYFCTRGKYCTARDYYNWDFEHWGRGAPVTVSS
VL: EIVLTQSPATLSLSPGETAIISCRTSQSGSLAWYQQRPGQAPRLVIYSGSTRAAGIPDRFSGSRWGADYNLSISNLESGDFGVYYCQQYEFFGQGTKVQVDI
For B2, the neutralization IC50 [1] was 0.003 µg/mL, the neutralization IC50 [2] was 0.37 µg/mL and the neutralization IC50 [3] was greater than 50 µg/mL. For the same binder, the neutralization IC50 [24] was greater than 50 µg/mL, the neutralization IC50 [4] was 0.017 µg/mL and the neutralization IC50 [25] was 7.91 µg/mL. The neutralization IC50 [6] was 0.075 µg/mL, the neutralization IC50 [7] was 0.04 µg/mL and the neutralization IC50 [8] was 0.24 µg/mL. The neutralization IC50 [9] was 0.046 µg/mL, the neutralization IC50 [10] was 0.022 µg/mL and the neutralization IC50 [11] was 0.02 µg/mL. The neutralization IC50 [12] was 0.008 µg/mL, the neutralization IC50 [13] was 0.009 µg/mL and the neutralization IC50 [14] was 0.015 µg/mL. For the same binder, the neutralization IC50 [15] was 0.007 µg/mL, the neutralization IC50 [16] was 0.005 µg/mL and the neutralization IC50 [17] was 0.04 µg/mL. For the same binder, the neutralization IC50 [18] was 0.03 µg/mL, the neutralization IC50 [19] was 0.89 µg/mL and the neutralization IC50 [20] was 0.011 µg/mL. It also gave a neutralization IC50 [21] of 0.022 µg/mL, a neutralization IC50 [22] of 0.09 µg/mL and a neutralization IC50 [23] of 0.22 µg/mL. It also gave a neutralization IC80 [26] of 0.011 µg/mL, a neutralization IC80 [27] of 0.029 µg/mL and a neutralization IC80 [28] greater than 50 µg/mL. For the same binder, the neutralization IC80 [29] was 0.063 µg/mL, the neutralization IC80 [30] was 0.41 µg/mL and the neutralization IC80 [31] was 1.12 µg/mL. For the same binder, the neutralization IC80 [32] was 2.26 µg/mL, the neutralization IC80 [33] was 0.42 µg/mL and the neutralization IC80 [34] was greater than 50 µg/mL. The neutralization IC80 [35] was 3.91 µg/mL, the neutralization IC80 [36] was 0.83 µg/mL and the neutralization IC80 [37] was greater than 50 µg/mL. For the same binder, the neutralization IC80 [38] was 0.25 µg/mL, the neutralization IC80 [39] was 0.036 µg/mL and the neutralization IC80 [40] was 0.135 µg/mL. It also gave a neutralization IC80 [41] of 0.054 µg/mL, a neutralization IC80 [42] of 0.02 µg/mL and a neutralization IC80 [43] of 1.38 µg/mL. For the same binder, the neutralization IC80 [44] was greater than 50 µg/mL, the neutralization IC80 [45] was 3.01 µg/mL and the neutralization IC80 [46] was 0.026 µg/mL. The neutralization IC80 [47] was 0.41 µg/mL, the neutralization IC80 [48] was 0.99 µg/mL and the neutralization IC80 [49] was 2.45 µg/mL. For the same binder, the neutralization IC80 [50] was 0.016 µg/mL.
